According to PMC2932714 (PLoS ONE, 2010):

Biological target: the molecule itself
Assay: thioflavin T fluorescence + atomi

B1: Ure2 (yeast prion protein Ure2, Saccharomyces cerevisiae) (natural protein, UniProt P23202 1-354, looked up)
chain: MMNNNGNQVSNLSNALRQVNIGNRNSNTTTDQSNINFEFSTGVNNNNNNNSSSNNNNVQNNNSGRNGSQNNDNENNIKNTLEQHRQQQQAFSDMSHVEYSRITKFFQEQPLEGYTLFSHRSAPNGFKVAIVLSELGFHYNTIFLDFNLGEHRAPEFVSVNPNARVPALIDHGMDNLSIWESGAILLHLVNKYYKETGNPLLWSDDLADQSQINAWLFFQTSGHAPMIGQALHFRYFHSQKIASAVERYTDEVRRVYGVVEMALAERREALVMELDTENAAAYSAGTTPMSQSRFFDYPVWLVGDKLTIADLAFVPWNNVVDRIGINIKIEFPEVYKWTKHMMRRPAVIKALRGE
notes: Ure2, Saccharomyces cerevisiae; the introduction describes it as a 354-amino acid homodimeric protein; It starts as the native dimer and assembles into protofibrils and mature fibrils on incubation at 4°C; also called WT Ure2; native Ure2; source: Escherichia coli, purified under native conditions
binding result: binds
